Literature values, collected in patent publication US11878044B2, “Combination therapy for ischemia” (NoNO Inc., priority 2011, dated 2024).

Molecular target: binding of NMDAR 2B to PSD-95 (Homo sapiens, UniProt P78352)
Details: reported by Bach

binding of NMDAR 2B to PSD-95, sequence (P78352 whole entry): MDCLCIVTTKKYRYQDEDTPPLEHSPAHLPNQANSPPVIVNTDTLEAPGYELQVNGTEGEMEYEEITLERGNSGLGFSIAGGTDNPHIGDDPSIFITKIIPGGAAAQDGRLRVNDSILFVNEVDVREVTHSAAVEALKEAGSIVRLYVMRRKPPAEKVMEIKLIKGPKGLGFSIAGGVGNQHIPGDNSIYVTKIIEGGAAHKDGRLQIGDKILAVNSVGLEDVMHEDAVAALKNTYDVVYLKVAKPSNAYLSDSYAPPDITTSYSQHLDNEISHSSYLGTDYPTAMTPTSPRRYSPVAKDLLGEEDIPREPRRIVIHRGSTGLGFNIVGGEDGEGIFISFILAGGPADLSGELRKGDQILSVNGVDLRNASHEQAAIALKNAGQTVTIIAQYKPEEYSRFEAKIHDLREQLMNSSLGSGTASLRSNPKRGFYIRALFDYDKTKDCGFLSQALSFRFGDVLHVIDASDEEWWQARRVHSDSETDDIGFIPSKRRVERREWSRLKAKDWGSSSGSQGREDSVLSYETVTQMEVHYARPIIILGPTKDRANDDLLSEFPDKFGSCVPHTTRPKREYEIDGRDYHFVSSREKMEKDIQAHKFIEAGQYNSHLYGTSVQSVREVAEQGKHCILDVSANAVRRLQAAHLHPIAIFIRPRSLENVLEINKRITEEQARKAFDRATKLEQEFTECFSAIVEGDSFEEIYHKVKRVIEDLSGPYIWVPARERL

IESDV
inhibiting binding of NMDAR 2B to PSD-95: effective in inhibiting binding of NMDAR 2B to PSD-95
